Results on two molecules are retold here after PMC4736712, “Direct α-synuclein promoter transactivation by the tumor suppressor p53”.

Data set [1] addresses T1, p53 (wild-type recombinant, p53r) (UniProt P04637 1-393). Description: EMSA; 200 ng p53, 20 fmol probe; shift blocked by anti-p53 pab421 or DO1; 1X binding buffer (Promega), 100 ng poly(dI-dC), 10 mM DTT, 1 mg/ml BSA, 4 °C, 30 min; 5% native PAGE at 4 °C; salt and pH not stated. The note with it: protein: commercial; chain copies: 4; label: 5' biotin; blunt. In general terms: In EMSA bound probe runs differently from free probe, usually more slowly.

For data set [2], the target named is T1, p53 (wild-type recombinant, p53r). Description: competition EMSA; 4 pmol cold competitor (200-fold excess) blocks shift of N1; 1X binding buffer (Promega), 100 ng poly(dI-dC), 10 mM DTT, 1 mg/ml BSA, 4 °C, 30 min; 5% native PAGE at 4 °C; salt and pH not stated. To be noted: protein: commercial; chain copies: 4; blunt.

T1 sequence (P04637 whole entry): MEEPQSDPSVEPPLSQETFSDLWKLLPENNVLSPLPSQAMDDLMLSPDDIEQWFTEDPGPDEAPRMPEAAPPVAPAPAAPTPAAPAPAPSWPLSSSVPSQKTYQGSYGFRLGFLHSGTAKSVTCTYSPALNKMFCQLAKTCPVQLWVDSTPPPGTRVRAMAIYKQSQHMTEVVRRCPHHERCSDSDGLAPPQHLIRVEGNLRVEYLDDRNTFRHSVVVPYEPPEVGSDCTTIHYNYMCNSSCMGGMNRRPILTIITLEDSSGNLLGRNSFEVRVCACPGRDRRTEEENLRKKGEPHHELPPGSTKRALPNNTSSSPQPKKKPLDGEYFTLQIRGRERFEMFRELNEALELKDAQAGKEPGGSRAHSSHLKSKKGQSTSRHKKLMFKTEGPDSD

B1: alpha-syn promoter probe (p53 half-site) (dsDNA)
DNA 1: CCTTTCGCTGGAGACATGCCCTTCCATCCTGTCAAAGCCC
DNA 2: GGGCTTTGACAGGATGGAAGGGCATGTCTCCAGCGAAAGG
Consider B1, for which the binding result in data set [1] is “binds”.

B2: unlabeled specific competitor (comp-sp) (dsDNA)
DNA 1: B1 DNA 1
DNA 2: B1 DNA 2
Take B2: the binding result in data set [2] is “binds”.
